The target of data set [1] is endogenous Aβ (AD hippocampus) (human (endogenous in postmortem hippocampus)). The data set can be described thus: FRET or BRET.
Data set [2] concerns the molecule itself. In words: nonreducing SDS-PAGE of peptide polymers.
Data set [3] deals with the molecule itself. In words: reducing SDS-PAGE and Western blotting of SDS-resistant polymers.

We go through nine molecules from article PMC5651433 (Alzheimer's & Dementia : Translational Research & Clinical …, 2017).

Non-standard residues stand in square brackets, D forms with d. No end group written: not given here. pY = N[C@@H](Cc1ccc(OP(=O)(O)O)cc1)C(=O)O; pS = N[C@@H](COP(=O)(O)O)C(=O)O

In data set [1], “endogenous Zfra (human hippocampus) (natural protein)” registered an FRETc of more than 45.
For AGLDDTDSEDELPPG [WWOX7-21], the binding result in data set [2] is reported as “binds”.
As for D[pY]WAMLAYNRSKLC [pY287-WWOX286-299], in data set [2], the binding result is “binds”.
Turning to AGLDDTD[pS]EDELPPG [pS14-WWOX7-21], the binding result in data set [2] is listed as “binds”.
As to RIQNP[pS]LRENDFIEIE [pS271-ANKRD40266-281], the binding result in data set [2] is “binds”.
On to RIQNPSLRENDFIEIE [ANKRD40266-281], for which the binding result in data set [2] is given as “binds”.
Regarding DPGPGGQKMSL[pS]VLE [pS35-TPC6A24-38], the binding result in data set [2] is “binds”.
For MSSRRSSSCKYCEQDFRAHTQKNAATPFLAN [Zfra1–31 (zinc finger-like protein that regulates apoptosis, full-length synthetic peptide)], the binding result in data set [3] is “binds”.
With DYWAMLAYNRSKLC [WWOX286-299], in data set [2], the binding result is given as “binds”.
